Data on 1 substance can be found in patent US7070977.

This data set deals with PFEK-protease D-G-6×HIS zymogen.
PFEK-protease D-G-6×HIS zymogen, sequence (chain, as listed by the source): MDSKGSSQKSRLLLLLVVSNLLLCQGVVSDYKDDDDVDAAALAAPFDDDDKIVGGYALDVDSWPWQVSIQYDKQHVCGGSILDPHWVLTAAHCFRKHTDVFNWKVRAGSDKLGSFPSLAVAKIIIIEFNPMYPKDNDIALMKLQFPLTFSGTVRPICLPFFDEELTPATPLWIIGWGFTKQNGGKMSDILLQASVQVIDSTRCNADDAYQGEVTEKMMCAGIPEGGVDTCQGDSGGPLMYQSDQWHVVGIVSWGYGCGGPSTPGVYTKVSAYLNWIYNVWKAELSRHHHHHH

For enterokinase, the “cleavage and activation of the zymogen (SDS-PAGE mobility shift and Western blot)” value was “This demonstrates the quantitative cleavage of the expressed and purified zymogen to generate the processed and activated protease”.
